Patent US20220289816A1, “IMMUNOTHERAPY WITH B*07 RESTRICTED PEPTIDES AND COMBINATION OF PEPTIDES AGAINST CANCERS AND RELATED METHODS” (Immatics Biotechnologies GmbH, priority 2018, published 2022)

Each substance was assayed against HLA-B*07 (Homo sapiens, UniProt P01889) (assay: MHC binding assay (UV-ligand exchange, ELISA of stabilized MHC complexes)). Settings: peptide exchange yield on HLA-B*07, UV-ligand exchange.
Description: Candidate peptides for T cell based therapies according to the present invention were further tested for their MHC binding capacity (affinity). The individual peptide-MHC complexes were produced by UV-ligand exchange, where a UV-sensitive peptide is cleaved upon UV-irradiation and exchanged with the peptide of interest as analyzed. Only peptide candidates that can effectively bind and stabilize the peptide-receptive MHC molecules prevent dissociation of the MHC complexes. To determine the yield of the exchange reaction, an ELISA was performed based on the detection of the light chain (β2m) of stabilized MHC complexes. The assay was performed as generally described in Rodenko et al. (Rodenko et al., 2006)
96 well MAXISorp plates (NUNC) were coated over night with 2 ug/ml streptavidin in PBS at room temperature, washed 4× and blocked for 1 h at 37° C. in 2% BSA containing blocking buffer. […] Peptide-MHC monomers of the UV-exchange reaction were diluted 100-fold in blocking buffer. Samples were incubated for 1 h at 37° C., washed four times, incubated with 2 ug/ml HRP conjugated anti-[…] for 1 h at 37° C., washed again and detected with TMB solution that is stopped with […]. Absorption was measured at 450 nm. Candidate peptides that show a high exchange yield (preferably higher than 50%, most preferred higher than 75%) are generally preferred for a generation and production of antibodies or fragments thereof, and/or T cell receptors or fragments thereof, as they show sufficient avidity to the MHC molecules and prevent dissociation of the MHC complexes.

Peptide exchange, ++++ (>75% = ++++):
110 (YPSSPASAV; listed as Homo sapiens) [compound 110]
113 (KPHLDRRGAVI; listed as Homo sapiens) [compound 113]
117 (IPHQRSSL; listed as Homo sapiens) [compound 117]
122 (KPRTPFTTAQLL; listed as Homo sapiens) [compound 122]
132 (LPRLPVGSLV; listed as Homo sapiens) [compound 132]
136 (QPDHAGIFRVF; listed as Homo sapiens) [compound 136]
140 (TPFPDIHWF; listed as Homo sapiens) [compound 140]
146 (SPTRGSEF; listed as Homo sapiens) [compound 146]
151 (QPTWNTQTRL; listed as Homo sapiens) [compound 151]
153 (QPVHSLCSA; listed as Homo sapiens) [compound 153]
157 (RPVTGSVC; listed as Homo sapiens) [compound 157]
164 (RAAGRRLQL; listed as Homo sapiens) [compound 164]
165 (RPSKEMQVTI; listed as Homo sapiens) [compound 165]
167 (NVNPARKGL; listed as Homo sapiens) [compound 167]
168 (SPSGQRDVSL; listed as Homo sapiens) [compound 168]
169 (RPFSVSSISQL; listed as Homo sapiens) [compound 169]
170 (APEGKRLGF; listed as Homo sapiens) [compound 170]
174 (IPVTSSVTL; listed as Homo sapiens) [compound 174]
176 (QPLDICHSF; listed as Homo sapiens) [compound 176]
180 (RLRDYISSL; listed as Homo sapiens) [compound 180]
185 (RPVLTASSF; listed as Homo sapiens) [compound 185]
187 (APPPPPPPF; listed as Homo sapiens) [compound 187]
189 (QPQCSTHIL; listed as Homo sapiens) [compound 189]
191 (KPKAVKPKAA; listed as Homo sapiens) [compound 191]
193 (LPALKEEAF; listed as Homo sapiens) [compound 193]

Peptide exchange, ++ (>20% = ++):
114 (FVPPSGPSNPM; listed as Homo sapiens) [compound 114]
125 (SPAKQFNIY; listed as Homo sapiens) [compound 125]
129 (MTLPATTLTL; listed as Homo sapiens) [compound 129]
130 (GAYDKARYL; listed as Homo sapiens) [compound 130]
133 (LPELPTTLTF; listed as Homo sapiens) [compound 133]
141 (YGPYGSGSGW; listed as Homo sapiens) [compound 141]
158 (SVPVATVEL; listed as Homo sapiens) [compound 158]
160 (IPVSHPVLTF; listed as Homo sapiens) [compound 160]
161 (ASKILETSL; listed as Homo sapiens) [compound 161]
173 (VIINNPISL; listed as Homo sapiens) [compound 173]
184 (KIIASGNHL; listed as Homo sapiens) [compound 184]
188 (HAAASFETL; listed as Homo sapiens) [compound 188]
192 (IPFADVKSF; listed as Homo sapiens) [compound 192]

Peptide exchange, +++ (>50 = +++):
109 (LPRALMRST; listed as Homo sapiens) [compound 109]
112 (YPSPLNKHSF; listed as Homo sapiens) [compound 112]
115 (KTKSLAQQL; listed as Homo sapiens) [compound 115]
118 (NPERHKPSF; listed as Homo sapiens) [compound 118]
120 (TVRPKNAAL; listed as Homo sapiens) [compound 120]
121 (GPFQRAAL; listed as Homo sapiens) [compound 121]
123 (RPRLRDLPAL; listed as Homo sapiens) [compound 123]
131 (MPFRNIRSIL; listed as Homo sapiens) [compound 131]
134 (VAAAARLTL; listed as Homo sapiens) [compound 134]
135 (MPRLLRLSL; listed as Homo sapiens) [compound 135]
139 (LVILQHQAM; listed as Homo sapiens) [compound 139]
143 (YPMIPPAQL; listed as Homo sapiens) [compound 143]
144 (RPVQGIPTY; listed as Homo sapiens) [compound 144]
145 (VPAQRLGLLL; listed as Homo sapiens) [compound 145]
147 (HVAQPAVVL; listed as Homo sapiens) [compound 147]
149 (SPSSVFTSK; listed as Homo sapiens) [compound 149]
150 (APLHGGGSL; listed as Homo sapiens) [compound 150]
152 (SSASFSSELFRH; listed as Homo sapiens) [compound 152]
154 (RPPPSRRAVL; listed as Homo sapiens) [compound 154]
156 (GSRPVTGSV; listed as Homo sapiens) [compound 156]
162 (IPIRVDQNGAF; listed as Homo sapiens) [compound 162]
171 (LPLGGHKSL; listed as Homo sapiens) [compound 171]
172 (SAQSLHPVL; listed as Homo sapiens) [compound 172]
177 (VWEPQGSSRSL; listed as Homo sapiens) [compound 177]
178 (VPYYPRANL; listed as Homo sapiens) [compound 178]
181 (LPVSPARAL; listed as Homo sapiens) [compound 181]
182 (RPLPVSPARAL; listed as Homo sapiens) [compound 182]
183 (VPRRPARAL; listed as Homo sapiens) [compound 183]
190 (RLAHVRARL; listed as Homo sapiens) [compound 190]
194 (HPNKIKASL; listed as Homo sapiens) [compound 194]
195 (NPIFGRKEL; listed as Homo sapiens) [compound 195]

Peptide exchange, + (>10% = +):
111 (YPLQQTNVY; listed as Homo sapiens) [compound 111]
119 (KATEYVHSL; listed as Homo sapiens) [compound 119]
126 (MPREDAHF; listed as Homo sapiens) [compound 126]
127 (KSKQVITLL; listed as Homo sapiens) [compound 127]
186 (VPLPAGGGTVLT; listed as Homo sapiens) [compound 186]
